In this assay the target is V5-tagged LvpIgR expressed in HEK293T cells (Litopenaeus vannamei).

Regarding “GST-tagged VP24 of WSSV (natural protein)”, the WSSV infection rate of HEK293T cells transfected with LvpIgR, FITC-labelled WSSV preincubated with rPEN2; control preincubated with rTrx: 49.08% came out at 33.9%.

The values are drawn from paper PMC7048182.
